From US10465005B2, “JAML specific binding agents, antibodies, and uses related thereto” (Emory University, priority 2011, dated 2019)
Entries after “also recorded” stand apart in the source; their conditions may differ.

T1: JAML D1 domain (Homo sapiens, UniProt Q86YT9)
T1 construct: made in house; host or cells: HEK293T
T1 sequence (Q86YT9 20-140): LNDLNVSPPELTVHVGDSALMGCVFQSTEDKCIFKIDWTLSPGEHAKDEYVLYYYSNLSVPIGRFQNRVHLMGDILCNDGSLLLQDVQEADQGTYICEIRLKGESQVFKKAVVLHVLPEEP

T2: JAML binding with CAR (Homo sapiens, UniProt Q86YT9)
T2 construct: soluble JAMLD1D2 was truncated and tagged after residue Leucine259; made in house; host or cells: HEK293T (sJAML-His)
T2 sequence (Q86YT9 20-259): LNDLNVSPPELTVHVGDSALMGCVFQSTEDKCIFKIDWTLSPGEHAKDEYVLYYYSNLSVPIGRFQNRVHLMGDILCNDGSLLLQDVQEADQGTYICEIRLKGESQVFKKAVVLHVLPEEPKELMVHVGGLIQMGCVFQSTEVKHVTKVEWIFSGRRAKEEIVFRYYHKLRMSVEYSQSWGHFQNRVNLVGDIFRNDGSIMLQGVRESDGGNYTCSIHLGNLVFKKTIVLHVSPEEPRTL

T3: CAR binding to JAML on CHO cells (Homo sapiens, UniProt Q86YT9)
T3 construct: expressed in transfected cells
T3 sequence (Q86YT9 20-394): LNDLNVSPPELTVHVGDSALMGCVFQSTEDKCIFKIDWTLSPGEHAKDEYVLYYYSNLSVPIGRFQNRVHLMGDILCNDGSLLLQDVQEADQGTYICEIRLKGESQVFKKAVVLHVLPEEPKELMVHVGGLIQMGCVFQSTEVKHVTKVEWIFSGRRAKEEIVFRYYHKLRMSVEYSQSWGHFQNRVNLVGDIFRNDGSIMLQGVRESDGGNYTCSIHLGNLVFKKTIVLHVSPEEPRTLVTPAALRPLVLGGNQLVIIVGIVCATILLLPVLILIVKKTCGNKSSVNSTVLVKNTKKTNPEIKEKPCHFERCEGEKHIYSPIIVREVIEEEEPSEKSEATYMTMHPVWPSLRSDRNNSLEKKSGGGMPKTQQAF

T4: CAR on CHO-CAR cells (Homo sapiens, UniProt P78310)
T4 construct: The full length gene of CAR was cloned into pcDNA3.1-Hygromycin; expressed in transfected cells
T4 sequence (P78310 20-365): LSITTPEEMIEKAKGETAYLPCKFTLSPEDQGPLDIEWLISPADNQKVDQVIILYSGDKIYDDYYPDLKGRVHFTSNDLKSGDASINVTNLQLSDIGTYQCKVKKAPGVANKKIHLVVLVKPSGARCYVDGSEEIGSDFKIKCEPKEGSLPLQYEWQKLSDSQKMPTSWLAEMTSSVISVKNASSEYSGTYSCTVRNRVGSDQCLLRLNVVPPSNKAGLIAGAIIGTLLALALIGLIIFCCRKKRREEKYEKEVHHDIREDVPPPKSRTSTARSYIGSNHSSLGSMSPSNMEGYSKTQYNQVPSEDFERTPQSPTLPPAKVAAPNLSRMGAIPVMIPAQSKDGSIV

B1: DW100: monoclonal anti-human JAML antibody (IgG1,κ), hybridoma ATCC PTA-13051; VH SEQ ID NO:19, VL SEQ ID NO:22 (antibody, V domains shown)
VH: DVQLVESGAELVRPGASKLSCKALAYTFTDYEMHWVKQTPVHGLEWIGIIHPGSGGTVYNQKFKGKATLTADKSSSTAYMELSSLTSEDSTVYYCTRRRYYGSSYNWYFDVWGAGN
VL: VLTQSPASLAASVGETVTITCRASENIYYSLAWYQQKQGKSPQLLIYNANSLEDGVPSRFSGSGSGTQYSLKINSMQPEDTATYFCEQTYDVPLTFGAGTKLEL
B2: sJAML: recombinant soluble fragment of JAML.D1D2 tagged with 10 His residues at the C-terminus (protein)
chain: T2 sequence (Q86YT9 20-259)

What was measured:
JAML D1 domain = molecular target: T1, JAML D1 domain; test: Domain specificity ELISA on sJAML-His, sJAML.D1-Fc, sJAML.D2-Fc; type: binding; conditions: sJAML.D2-Fc coated, FIG. 1B
Experimental: FIG. 1B. sJAML-His and purified soluble, mutant fragments of JAML, tagged with rabbit Fc (membrane distal Ig loop: sJAML.D1-Fc and membrane proximal Ig loop: sJAML.D2-Fc) were coated on Immulon II microtiter wells overnight at 4° C. After blocking and washing, antibodies were added to wells for 1 hour and the assay developed with HRP conjugated goat anti mouse Ig (H+L). After addition of ABTS, microtiter wells were analyzed in a microtiter plate reader at 405 nm wavelength. M3 is polyclonal mouse serum collected from the sJAML-His immunized mouse before the fusion. 9E10 anti Myc was used as control.
To determine the domain specificity of monoclonal antibodies, soluble full length JAML.D1D2-His (sJAML-His), truncated extracellular fragments: soluble membrane distal fragment JAML.D1-Fc (sJAML.D1-Fc), and soluble membrane proximal fragment JAML.D2-Fc (sJAML.D2-Fc), both tagged with rabbit Fc, were generated and tested for antibody binding. […] Polyclonal serum (M3) was collected from the immunized mouse prior the fusion and was used as the positive control in the binding assay.

JAML binding with CAR = molecular target: T2, JAML binding with CAR; test: CAR binding assay (ELISA, CAR-GST on immobilized sJAML-His); conditions: CAR-GST 10 μg/ml on immobilized sJAML-His preincubated with antibody; FIG. 1C
Experimental: FIG. 1C. CAR binding assay: sJAML-His was coated in Immulon II microtiter microtiter wells overnight, at 4° C. Microtiter wells were washed and blocked and 100 μl antibody solutions were added to wells for 1 hour RT. After washing, CAR-GST was added at 10 μg/ml for 1 hour RT, washed and the assay was developed with HRP conjugated goat anti GST followed by ABTS and OD measurement at 405 nm.
Because certain antibodies recognize the membrane distal domain of JAML, their ability to inhibit binding to CAR was tested. By ELISA, the levels of soluble CAR-GST bound to immobilized sJAML-His preincubated with anti JAML antibodies was measured. […] Thus, these antibodies recognize three different epitopes on JAML and that both DW100 and DW55 bind epitopes close to the JAML binding site. Using a cell aggregation assay, the possibility that DW100 could inhibit the binding of JAML to CAR expressed on the surface of cells was examined. […] This again confirms previously described JAML binding to CAR, as well as the specificity of DW100 (blocking) and DW216 (non-blocking) Abs to JAML.

[1] = molecular target: T3, CAR binding to JAML on CHO cells; test: CAR-GST binding to CHO-JAML by flow cytometry; type: cell-based; conditions: CAR-GST 20 μg/ml, mAbs 30 μg/ml, FIG. 7C
Experimental: FIG. 7C. CHO-K1 cells stably expressing JAML (CHO-JAML) were incubated with CAR-GST alone (20 μg/ml, left panel) or in the presence of DW216 and DW100 mAbs (30 μg/ml, right panel) as described for sJAML and the binding was measured by flow cytometry.
(§1) As it has been established that epithelial CAR is the ligand for JAML on PMN. Whether shed JAML, as well as the recombinant protein could bind to CAR was investigated. To do this, CHO cells stably expressing CAR protein (CHO-CAR) were incubated with either supernatants from PMA activated differentiated PLB-985 (that release high levels of soluble JAML upon activation, (FIG. 2)), or recombinant soluble JAML and stained with DW216 to detect bound JAML. […] The same observation was verified by IF (FIG. 7B). […] The calcium depletion disrupts intercellular junctions of the epithelium and allows for better penetration of soluble JAML.

[2] = tested on: PMN transepithelial migration; test: PMN transepithelial migration; type: cell-based, human
CAR on CHO-CAR cells = molecular target: T4, CAR on CHO-CAR cells; test: Soluble JAML binding to CHO-CAR by flow cytometry; type: cell-based; conditions: sJAML 20 μg/ml, 1 h at 4° C., DW216 detection, FIG. 7A
Experimental: CHO-K1 cells stably expressing CAR (CHO-CAR) were incubated with supernatants from PMA activated PLB cells (˜5˜10^7 cell activated in 1 ml, left panel) or recombinant soluble JAML-His (sJAML, 20 μg/ml, right panel) for 1 h at 4° C. JAML binding to CAR on the cell surface was measured by flow cytometry and compared to CHO-CAR cells alone (NoTx). The flow micrograph is representative of 4 independent experiments.
as §1

Molecule | JAML domain bound (JAML D1 domain) | inhibition of CAR binding to JAML (JAML binding with CAR) | prevention of CAR-GST binding to CHO-JAML [1] | inhibitory effect on PMN transepithelial migration [2] | JAML binding to CHO-CAR (CAR on CHO-CAR cells)
B1 | binds the D1 domain of JAML; also recorded: specifically binds JAML D1 domain | inhibit human JAML binding with CAR; also recorded: completely inhibited JAML/CAR interactions; also recorded: completely inhibited binding of JAML to CAR | blocked by DW100 | ~15% | 
B2 |  |  |  |  | JAML binding to CHO-CAR was detected in both cases
